Target: T1, APP770-YFP (human, UniProt P05067-1 18-770)
T1 construct: human amyloid precursor protein, the isoform named APP770; Plasmid was a gift (Prof. Goldstein, UCSD); the construct is not described further; also called APP-YFP; source: HEK293, transfected (APP770-YFP pcDNA3.1), in lysate or in living cells
Test: FRET or BRET; FRET acceptor bleaching in co-transfected HEK293 cells (YFP and CFP fusions); FRET efficiency from photobleached regions of interest; the negative control's value used as cut-off
Conditions: partners not purified

T1 sequence (P05067 18-770): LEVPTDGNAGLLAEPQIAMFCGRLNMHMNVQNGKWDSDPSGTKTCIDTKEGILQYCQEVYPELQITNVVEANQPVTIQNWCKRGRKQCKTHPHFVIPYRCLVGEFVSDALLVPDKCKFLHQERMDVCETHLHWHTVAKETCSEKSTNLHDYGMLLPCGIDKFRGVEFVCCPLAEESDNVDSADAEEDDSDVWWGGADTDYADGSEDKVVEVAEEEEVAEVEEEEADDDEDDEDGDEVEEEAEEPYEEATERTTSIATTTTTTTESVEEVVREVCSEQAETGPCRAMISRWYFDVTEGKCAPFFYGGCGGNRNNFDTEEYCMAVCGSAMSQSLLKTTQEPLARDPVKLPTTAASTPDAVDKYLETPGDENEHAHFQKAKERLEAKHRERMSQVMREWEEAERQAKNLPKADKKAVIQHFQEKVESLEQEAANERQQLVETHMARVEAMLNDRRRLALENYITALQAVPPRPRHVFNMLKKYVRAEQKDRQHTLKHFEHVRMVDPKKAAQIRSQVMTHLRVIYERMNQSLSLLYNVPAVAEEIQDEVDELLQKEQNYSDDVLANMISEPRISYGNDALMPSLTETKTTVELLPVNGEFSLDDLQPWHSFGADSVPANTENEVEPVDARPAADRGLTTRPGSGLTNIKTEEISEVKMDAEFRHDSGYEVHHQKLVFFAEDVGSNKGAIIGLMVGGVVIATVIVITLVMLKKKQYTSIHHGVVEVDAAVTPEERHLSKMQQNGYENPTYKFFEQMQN

B1: Sort 756-831-CFP (domain or fragment, human, UniProt Q99523-1 756-831, looked up)
chain: SVPIILAIVGLMLVTVVAGVLIVKKYVCGGRFLVHRYSVLQQHAEANGVDGVDALDTASHTNKSGYHDDSDEDLLE
notes: The forward primer adds a start ATG before the stretch; source: HEK293, transfected, in lysate or in living cells; not shown: CFP (vector pECFP-N1), C-terminal, kept
FRET efficiency: 40%
